In article PMC6188894 one finds percent of transfected (mCherry-positive) cells with BiFC signal and response data, which are given here for 11 substances.

Assay [1] concerns the target VN-TFIIEβ (TFIIEβ fused to the N-terminal fragment of Venus, pCS2VNm9) (Drosophila). As to the kind of experiment: split reporter (BiFC, NanoBiT); BiFC with split Venus (VC and VN fusions) in co-transfected HEK293 cells, read 48 h after transfection by confocal microscopy; percent = Venus-fluorescent cells in one hundred mCherry-positive cells, three independent experiments.

In assay [2] the target is VN-TFIIEβ (TFIIEβ fused to the N-terminal fragment of Venus, pCS2VNm9). As to the kind of experiment: BiFC. The settings on record: cell culture; pCAG-Cherry co-transfected as a control.
Assay [3] concerns the target EXD (BiFC partner in HEK293 cells) (Drosophila) (UniProt P40427). Put plainly: split reporter (BiFC, NanoBiT); BiFC with split Venus (VC and VN fusions) in co-transfected HEK293 cells, read 48 h after transfection by confocal microscopy; percent = Venus-fluorescent cells in one hundred mCherry-positive cells, three independent experiments.
Chain of UniProt P40427 (P40427 whole entry, the tested form may be a part): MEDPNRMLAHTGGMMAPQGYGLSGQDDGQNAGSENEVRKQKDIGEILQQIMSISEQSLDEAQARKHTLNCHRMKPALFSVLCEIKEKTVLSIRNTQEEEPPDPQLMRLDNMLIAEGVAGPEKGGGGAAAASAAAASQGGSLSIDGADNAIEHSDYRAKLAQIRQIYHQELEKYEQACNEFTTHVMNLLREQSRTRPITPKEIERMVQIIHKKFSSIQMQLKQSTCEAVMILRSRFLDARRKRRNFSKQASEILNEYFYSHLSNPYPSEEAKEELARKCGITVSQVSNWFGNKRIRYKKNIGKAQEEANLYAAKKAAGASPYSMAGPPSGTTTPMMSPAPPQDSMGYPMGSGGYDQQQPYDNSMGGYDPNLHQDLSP

Chain of VN-TFIIEβ (TFIIEβ fused to the N-terminal fragment of Venus, pCS2VNm9) (Drosophila) (O96881 entry or part of it): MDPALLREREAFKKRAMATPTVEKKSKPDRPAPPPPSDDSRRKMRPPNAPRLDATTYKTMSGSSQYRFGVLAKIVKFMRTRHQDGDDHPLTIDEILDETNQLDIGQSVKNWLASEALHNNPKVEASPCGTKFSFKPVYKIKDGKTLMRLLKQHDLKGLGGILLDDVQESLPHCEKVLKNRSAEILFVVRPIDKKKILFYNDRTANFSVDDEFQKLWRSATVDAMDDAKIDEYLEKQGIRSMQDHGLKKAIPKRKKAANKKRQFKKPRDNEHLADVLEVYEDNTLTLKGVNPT

Regarding “VC-Antp (wild-type Antennapedia fused to the C-terminal fragment of Venus, pCS2VC155) (from UniProt P02833 1-378) (natural protein)”, the percent of transfected (mCherry-positive) cells with BiFC signal in assay [1] was 78%.

“VC-Antp (wild-type Antennapedia fused to the C-terminal fragment of Venus, pCS2VC155) (from UniProt P02833) H36R” showed a response in assay [2] of 32%.

In the case of “VC-Antp (wild-type Antennapedia fused to the C-terminal fragment of Venus, pCS2VC155) (from UniProt P02833) I32A”, the response in assay [2] amounted to 29%.

On to “VC-Antp (wild-type Antennapedia fused to the C-terminal fragment of Venus, pCS2VC155) (from UniProt P02833) I32L”, for which the response in assay [2] stood at 31%.

Turning to “VC-AntpHD (Antp homeodomain construct fused to the C-terminal fragment of Venus, pCS2VC155) (domain or fragment)”, in assay [1], the percent of transfected (mCherry-positive) cells with BiFC signal is 75%.

Consider “VC-Antp^AAAA (Antp with the YPWM motif replaced with alanines) (from UniProt P02833 1-378) (natural protein)”, for which the percent of transfected (mCherry-positive) cells with BiFC signal in assay [1] is 76%.

For the substance “VC-Antp^I32A-H36A (in HEK293 cells) (natural protein)”, the percent of transfected (mCherry-positive) cells with BiFC signal in assay [3] is 79%.

Regarding VC-Antp^I32L-H36R (natural protein), in assay [1], the percent of transfected (mCherry-positive) cells with BiFC signal was determined as 13%.

In the case of “VC-AntpΔH1 (Antp with helix 1 of the HD deleted) (from UniProt P02833 1-378) (natural protein)”, the percent of transfected (mCherry-positive) cells with BiFC signal in assay [1] was determined as 74%.

In turn, “VC-AntpΔH1-2 (Antp with helices 1 and 2 of the HD deleted) (from UniProt P02833 1-378) (natural protein)” displayed a percent of transfected (mCherry-positive) cells with BiFC signal in assay [1] of 15%.

Take “VC-AntpΔHD (Antp with the homeodomain deleted) (from UniProt P02833 1-378) (natural protein)”: the percent of transfected (mCherry-positive) cells with BiFC signal in assay [1] is 26%.
